From the DeepSol protein solubility set come the findings set out here.

This data set is described as follows: soluble on expression in E. coli; label from the status in PepcDB or PDB records.
“RKLTMNSNYKREDFVNETEVRWCPGCGDYAILAALQRVLPELGLPPEQHVFVSGIGCAGRLPYYMNTYGFHTIHGRATAVATGLKAMREDLCVWVITGDGDALSIGGNHLLHILRRNVNVNILLFNNQVYGLTKGQFSPTSQKGQVTKTSPKGVTSEPINPIMIALASGASFVARAVDKDPVHLASVLKKAYEHKGCSFVEIYQDCNIFNHGAFDDFAVKNNRAENTIILEDGQPLVFGAQKEKALQLDDEQFVQISIDEKTLYKHDEKNLISAMRLARLTFPDYPVPLGVYYQKDRERFTLSQEVKKRPEDLP”: the “soluble on expression in E. coli” value is reported as “not soluble”.
With “MTVSSHRLELLSPARDAAIAREAILHGADAVYIGGPGFGARHNASNSLKDIAELVPFAHRYGAKIFVTLNTILHDDELEPAQRLITDLYQTGVDALIVQDMGILELDIPPIELHASTQCDIRTVEKAKFLSDVGFTQIVLARELNLDQIRAIHQATDATIEFFIHGALCVAYSGQCYISHAQTGRSANRGDCSQACRLPYTLKDDQGRVVSYEKHLLSMKDNDQTANLGALIDAGVRSFKIEGRYKDMSYVKNITAHYRQMLDAIIEERGDLARASSGRTEHFFVPSTEKTFHRGSTDYFVNARKGDIGAFDSPKFIGLPVGEVVKVAKDHLDVAVTEPLANGDGLNVLIKREVVGFRANTVEKTGENQYRVWPNEMPADLHKIRPHHPLNRNLDHNWQQALTKTSSERRVAVDIELGGWQEQLILTLTSEEGVSITHTLDGQFDEANNAEKAMNNLKDGLAKLGQTLYYARDVQINLPGALFVPNSLLNQFRREAADMLDAARLASYQRGSRKPVADPAPVYPQTHLSFLANVYNQKAREFYHRYGVQLIDAAYEAHEEKGEVPVMITKHCLRFAFNLCPKQAKGNIKSWKATPMQLVNGDEVLTLKFDCRPCEMHVIGKIKNHILKMPLPGSVVASVSPDELLKTLPKRKG”, the “soluble on expression in E. coli” value was “soluble”.
Next, “MGSDKIHHHHHHMTQLANTKFSLNDFELRDGIYFPSDYEQLNNTQHKKTWDAIGKTYYGSQKIEKLADTSPIKQDYTLLTGTPGGTWNKFPLNKSVGSILEIGSGYGRAPLHLSKAKNLRCEKYYGIDISEPLLRRLIKVKQEYNFFPEAEFNLICTSAEILPLEDNSIDLVISNCVFMHIPDAQLRSLLADISRVLKPGGIFVFNHSFHNKSCPSHIIHNFVRKLNPFVRNPVYLKQYSSAEINEMLASAGIQTKCPQYIVEPTEEYAILPETIKGIPVPFAKAINRSLKPSDALKETLAYGFSAYSSQLD”: “not soluble”; “MNPLLTDSRRQALRSASHWYAVLSGERVSPQQEARWQQWYEQDQDNQWAWQQVENLRNQLGGVPGDVASRALHDTRLTRRHVMKGLLLLLGAGGGWQLWQSETGEGLRADYRTAKGTVSRQQLEDGSLLTLNTQSAADVRFDAHQRTVRLWYGEIAITTAKDALQRPFRVLTRQGQLTALGTEFTVRQQDNFTQLDVQQHAVEVLLASAPAQKRIVNAGESLQFSASEFGAVKPLDDESTSWTKDILSFSDKPLGEVIATLTRYRNGVLRCDPAVAGLRLSGTFPLKNTDAILNVIAQTLPVKIQSITRYWINISPL”: “soluble”; “MRGSHHHHHHTDPALRADYRKIIKEIGRGKNHARDLDRDTARGLYAHMLNGEVPDLELGGVLIALRIKGEGEAEMLGFYEAMQNHTIKLTPPAGKPMPIVIPSYNGARKQANLTPLLAILLHKLGFPVVVHGVSEDPTRVLTETIFELMGITPTLHGGQAQAKLDEHQPVFMPVGAFCPPLEKQLAMRWRMGVRNSAHTLAKLATPFAEGEALRLSSVSHPEYIGRVAKFFSDIGGRALLMHGTEGEVYANPQRCPQINLIDREGMRVLYEKQDTAGSELLPQAKDPETTAQWIERCLAGSEPIPESLKIQMACCLVATGEAATISDGLARVNQAFGLCGR”: “soluble”.
Then “TRGLNFSVEFTGGTVMEVQYQQGADVNKMRERLDTLKIGDVQVQALGTNKHIMIRLPNKEGVTSAQLSNQVMDLLKKDSPDVTLRQVEFIGPQVGEE”, with “not soluble”.
For “AQNSTVKINGLTLVQSSNQLNEAITGVTIDLKKAEIGKIVTLTVDDNKDQLTGLINEFIKQYNDTMTFLTNLTGYNNETKQGGVFQGDPQFRNLKLNLNKWATTPLANQEGPIRSLADLGIITNKQGLLEIKQDKFKTALDNHYKEIGALFAKTAKANDTGINVKSINSTVKSGTYDVVLTEFTPGVSMSGTIGGLSAISSDGITLTGSADLSGLSINVFSGSAGSRGQITVTDGIAVQLSSLLDAYIEIKGDLEQRKDQLNNQVKQLNKIQNEIDIRRKSIETRYLKQFTALDTLLSQLQS”, the “soluble on expression in E. coli” value is “soluble”.
Then “VTRPRPPLGPAMAGAVDLSGIKQRAQQNAAASTDADRALSTPSGVTEITEANFEDEVIVRSDEVPVVVLLWSPRSEVCVDLLDTLSGLAAAAKGKWSLASVNVDVAPRVAQIFGVQAVPTVVALAAGQPISSFQGLQPADQLSRWVDSLLSATAGKLKGAASSEESTEVDPAVAQARQQLEDGDFVAARKSYQAILDANPGSVEAKAAIRQIEFLIRATAQRPDAVSVADSLSDDIDAAFAAADVQVLNQDVSAAFERLIALVRRTSGEERTRVRTRLIELFELFDPADPEVVAGRRNLANALY”, with “not soluble”; and “MQYKGQGFQPVAEKSAIAHAKKYREEYEKLGEQFFKDNFSLNVKATNVVGSGDGVEVYVHCDDHDIVFNASIPFDKEAIHEEGSMRSNDNGDTMSNMVGTVLSGFEYKAQKEKYDNLTKFFKDNEEKYQYTGFTKEAIHKTQNVGYQNEYYYLAGNVTNINNYRKYYEPLIKKDSKNFKEGMKKANEATNFKAKIEVVSTLFSTKSDFTKNNSKKDLLFLSDDLYHYKEKPENTNITLQLSEPKINSTRAFYDANNPLEYGVHKHELEHHHHHH”, with “not soluble”.
For “MATNWGSLLQDKQQLEELARQAVDRALAEGVLLRTSQEPTSSEVVSYAPFTLFPSLVPSALLEQAYAVQMDFNLLVDAVSQNAAFLEQTLSSTIKQDDFTARLFDIHKQVLKEGIAQTVFLGLNRSDYMFQRSADGSPALKQIEINTISASFGGLASRTPAVHRHVLSVLSKTKEAGKILSNNPSKGLALGIAKAWELYGSPNALVLLIAQEKERNIFDQRAIENELLARNIHVIRRTFEDISEKGSLDQDRRLFVDGQEIAVVYFRDGYMPRQYSLQNWEARLLLERSHAAKCPDIATQLAGTKKVQQELSRPGMLEMLLPGQPEAVARLRATFAGLYSLDVGEEGDQAIAEALAAPSRFVLKPQREGGGNNLYGEEMVQALKQLKDSEERASYILMEKIEPEPFENCLLRPGSPARVVQCISELGIFGVYVRQEKTLVMNKHVGHLLRTKAIEHADGGVAAGVAVLDNPYPV”, the “soluble on expression in E. coli” value is given as “soluble”.
Then “MTTDERKLFNHLKSPHLKYWVPFIWFGNLATKARNEGRIRDSVDLQSLMTEMNRYRSWCSLLFGYDWVGIPLVYTQVAEQLINPFGEDDDDFETNWCIDRNLQVSLLAVDEMHMSLPKMKKDIYWDDSAARPPYTLAAADYCIPSFLGSTVQMGLSGSDFPDEEWLWDYEKHGHRHSMIRRVKRFLSAHEHPSSPRRRSYRRQTSDSSMFLPRDDLSPARDLLDVPSRNPPRASPTWKKSCFPEGSPTLHFSMGELSTIRETSQTSTL”, with “soluble”; and “MGSDKIHHHHHHMGIKYSFTRELRTELIDVDKVFKENLLPWWDDIYNYIKMLNEDFTWNQLPPLVYIVYRYLGLDRSISISMTNIFKTLYLANSIHGMVKDDKEGQKYDQDLQFAILIGDYMFGRMLKLLVEAGADKLVGLFAVMMAEINEGQVMERKLQAAHKDVLQKTRGSIYATAFETAGHLSGMKGILLENCRQLGLNLGMSIELMNCDISREEVLVYIHEAERNYKIINQYQRMVNSNLEAAINEVHSLLCNIENVAVV”, with “not soluble”.
On to “MTAKTEDNLKEYTRSQVEQHCTHDDLWLLFRDKVYNMTPYFNQHPGGLAILRYAGKDVTTVLPFVVSHGIAWKIVEQKLQEHLIGKLKE”, for which the “soluble on expression in E. coli” value is reported as “not soluble”.
For “MSMEDPFFVVKGEVQKAVNTAQGLFQRWTELLQGPSAATREEIDWTTNELRNNLRSIEWDLEDLDETISIVEANPRKFNLDATELSIRKAFITSTRQIVRDMKDQMSASS”, the “soluble on expression in E. coli” value is given as “soluble”.
Next, “MRLLVIIILVAFFLCTTAELMEKRSSMGGSAFGGIDRIPLSYLRKYYRQKTMKRDDNELLDFSPQNSQLGYRSISFWPLY”: “not soluble”; “MSTSVAENKALSASGDVNASDASVPPELLTRHPLQNRWALWYLKADRNKEWEDCLKMVSLFDTVEDFWSLYNHIQSAGGLNWGSDYYLFKEGIKPMWEDVNNVQGGRWLVVVDKQRRTQLLDHYWLELLMAIVGEQFDEYGDYICGAVVNVRQKGDKVSLWTRDATRDDVNLRIGQVLKQKLSIPDTEILRYEVHKDSSARTSSTVKPRICLPAKDPAPVKEKGPAATTSPSNPGTEATGTSPATPTP”: “not soluble”.
Then “PFEGNATEVFTDGYSMLYSLMKEISKAKHHIHLQFYIFEDDPAGRLLRDLLIDKARQGVEVRLLYDDVGCWKVPHAFFDEMRGAGIEARSFLKVRFPLFTSKVNYRNHRKIVVIDGRVAYTGGMNIALRYMKGFPWGIWRDTHIKIEGKAVYGLQTAFLTDWYVVDRTLITSSRYFPEVGIFGKALIQIVTSDP”, with “not soluble”.
Next, “MPQSFTSIARIGDYILKSPVLSKLCVPVANQFINLAGYKKLGLKFDDLIAEENPIMQTALRRLPEDESYARAYRIIRAHQTELTHHLLPRNEWIKAQEDVPYLLPYILEAEAAAKEKDELDNIEVSK”: “soluble”; “MSQLINLPMDQILYLSTSDIKHHVHLQTIHTLMDIRANLADFKKIHKKLYPCHRSYIVNTDMIISVNKTNYEATLINGQVLPVSRMKIGKIAQIVEERGRLEHHHHHH”: “not soluble”; “MRMAAMHSGGKTIQLNAGHYQAKIVTVGAGLAELTHHGRHVVIPHKPEEIPMAHLGKVLIPWPNRVTNGCYSYNGKVFQLAVNDPVSQTAIHGLLAWRDWQINYQSATEASLTIFLPPSYGYPFALISEVIYRLDAASGLHVLIRTQNIGDESAPYGAGAHPYLTCNLQSIDSCVLTLPASEELPAGRDFSASCLLGETRLDHAVKTATTPAEWEVRLTSPTQNMSTFLRSTQPWLQIYTGEKLSRKGLAVEPMSCPPDAFNSGIALIHLAPKAIHQLHFSIGCD”: “not soluble”.
Regarding “MGSDKIHHHHHHMKKAMVIINPTSGGEKALDYKEKLENKAKEYFEYVETKITEKALDATHFAEEASREQYDAVVVFGGDGTVNEVISGIDERDYIPKLGIIPGGTGNLITKLLEINQDIDGAIDELDFDLTNKIDIGKANDNYFGYIFSIGSLPEAIHNVEIEDKTKFGILTYAVNTMKSVMTDQVFNIKVETENGNYVGEASHVLVLLTNYFADKKIFEENKDGYANILILKDASIFSKLSVIPDLLKGDVVANDNIEYIKARNIKISSDSELESDVDGDKSDNLPVEIKVLAQRVEVFSKPKED”, the “soluble on expression in E. coli” value is listed as “not soluble”.
Then “MDAIITGESERIGLSVIDNNDVEHLIETNESGEITYHEQDGYPDDSSKRTDEGNEYVNQARKYAKYYVYLKRGYDTVSAPENPVRIDAVRQAIAQMDLETFETHFGDLYQQFSSETDGSAEPVYDVPPQATTPPIYAQNVYLGIDPLETDLGDELAAKHDLDITAESAADVAIADLSTEEIKQWGEFTGEFATRAIEEQIDLSDAVYIDNTSQLYVKHPEGTDLVAADDHLEPTSREPDTVIELLPIELESLEYFQSFMDHYLRCQIRDVFIEMGVVPPEEFRVLGLGQFMAAHCYSYIDFYPEFHNPESGAFTQQTSLF”, with “not soluble”; and “MDQKSSSPQPAAQAPETKQAFPRKFVLAALEQSSDDAGWANLGNFGNYLNKLQPDFDSRLYGYKKLSDLVKARTDLFVTEERQVPGSTQKALYLRAKLEHHHHHH”, with “soluble”.
